The target in the test is T1, Cyclophilin A (endogenous) (mouse (endogenous in mouse SCLC …, UniProt P17742 1-164)).
T1 construct: cyclophilin A, encoded by Ppia, endogenous in cell lines derived from mouse SCLC tumors; also called CypA; PPIA; source: endogenous, mouse SCLC Type D (4711-18) and Type V (4716-10) cells, fixed cells
The test is described as follows: proximity ligation; Duolink PLA on fixed Type D (4711-18) and Type V (4716-10) mouse SCLC cells treated with 4-OHT for 48 h; endogenous proteins; antibodies to p53 and to cyclophilin A, D or E. Particulars: partners not purified.

The source of these data is publication PMC10362054, “p53 restoration in small cell lung cancer identifies a latent cyclophilin-dependent necrosis mechanism” (Nature Communications, 2023).

T1 sequence (P17742 whole entry): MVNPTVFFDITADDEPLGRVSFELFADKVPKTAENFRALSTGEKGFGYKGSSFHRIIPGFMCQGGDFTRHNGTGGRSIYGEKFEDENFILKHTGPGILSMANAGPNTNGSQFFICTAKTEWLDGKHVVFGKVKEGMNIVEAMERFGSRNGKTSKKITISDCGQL

B1: p53 (endogenous, restored Trp53 allele) (natural protein, UniProt P02340 1-390, looked up)
chain: MTAMEESQSDISLELPLSQETFSGLWKLLPPEDILPSPHCMDDLLLPQDVEEFFEGPSEALRVSGAPAAQDPVTETPGPVAPAPATPWPLSSFVPSQKTYQGNYGFHLGFLQSGTAKSVMCTYSPPLNKLFCQLAKTCPVQLWVSATPPAGSRVRAMAIYKKSQHMTEVVRRCPHHERCSDGDGLAPPQHLIRVEGNLYPEYLEDRQTFRHSVVVPYEPPEAGSEYTTIHYKYMCNSSCMGGMNRRPILTIITLEDSSGNLLGRDSFEVRVCACPGRDRRTEEENFRKKEVLCPELPPGSAKRALPTCTSASPPQKKKPLDGEYFTLKIRGRKRFEMFRELNEALELKDAHATEESGDSRAHSSYLKTKKGQSTSRHKKTMVKKVGPDSD
notes: p53 expressed from the restored endogenous Trp53 allele (p53 R state) in cell lines derived from mouse SCLC tumors; source: endogenous, mouse SCLC Type D (4711-18) and Type V (4716-10) cells after 4-OHT, fixed cells
Consider B1, for which the “fold less PLA interaction in Type V cells than in Type D cells” value is roughly 10 fold.
